The values that follow are results of earlier work, collected in article PMC4370504.

The Kd is a measure of binding affinity in units of concentration.

The series concerns the target ubiquitin (Homo sapiens) (UniProt P0CG47). As to the kind of experiment: ITC.

Pol eta UBZ, sequence (Q9Y253 625-665): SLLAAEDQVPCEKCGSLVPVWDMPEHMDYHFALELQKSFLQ

As for Pol eta UBZ (from UniProt Q9Y253), the Kd is 81 µM.
